Literature values in article PMC11045845 (Nature Communications, 2024).
No end group written: not given here.

Assays:
[1] = literature values for comparison
Protocol: Upon increasing the lipid concentration, the intensity at the emission maximum increased and the position of the maximum was blue-shifted to lower wavelengths. A maximum blue shift of (18 ± 2) nm in the presence of 2 mM POPC was determined (Fig. 2a, blue curve, Fig. 2b), accompanied by an increase in the maximum fluorescence intensity (Fig. 2a, c). The observed blue shift indicates the partitioning of the L-trypt ...

[2] = glycerylmonooleate BLMs
Excerpt: For further support, single-channel proton conductance measurements would be desirable but cannot be performed at physiological conditions owing to orders of magnitudes too small proton concentrations.

Row | Substance | blue shift [1] | single-channel conductance GK+ [2]
1 | cecropin A (KWKLFKKIEKVGQNIRDGIIKAGPAVAVVGQATQIAK; ends and bridges not checked; UniProt P01507 27-63, looked up) [antimicrobial peptide] | 15 nm | 
2 | gramicidin A |  | ≈ 29 pS
3 | melittin | around 20 nm | 
